According to PMC5606208 (Nature, 2017):

What was measured:
SEC-MALS = target: the molecule itself; experiment: SEC-MALS
AUC = target: the molecule itself; experiment: AUC

Protein	stoichiometry N (SEC-MALS)	binding result (AUC)
nPhos-HP1α (HP1α S92A, S95A, S97A co-expressed with CKII, phosphorylated only in the N-terminal extension) (natural protein, human, UniProt P45973 1-191, looked up, phosphorylated at Ser11, Ser12, Ser13, Ser14 (NTE); 8 phosphates per dimer by native MS) MGKKTKRTADSSSSEDEEEYVVEKVLDRRVVKGQVEYLLKWKGFSEEHNTWEPEKNLDCPELISEFMKKYKKMKEGENNKPREKSESNKRKANFANAADDIKSKKKREQSNDIARGFERGLEPEKIIGATDSCGDLMFLMKWKDTDEADLVLAKEANVKCPQIVIAFYEERLTWHAYPEDAENKEKETAKS	2	–
PhosNH-α/βchimera (N-terminus and Hinge from HP1α with the Chromodomain, Chromoshadow domain and CTE from HP1β, phosphorylated) (other, human, phosphorylated NTE (fully phosphorylated, sites not given)) GKKTKRTADSSSSEDEEEYVVEKVLDRRVVKGKVEYLLKWKGFSDEDNTWEPEENLDCPDLISEFMKKYKKMKEGENNKPREKSESNKRKSNFSNSADDIKSKKKREQSNDIARGFARGLEPERIIGATDSSGELMFLMKWKNSDEADLVPAKEANVKCPQVVISFYEERLTWHSYPSEDDDKKDDKN	–	binds
